Reference: patent publication US7407934

Biological target: amylin receptor (rat basal forebrain membranes containing the nucleus accumbens and surrounding regions) (rat)
Experiment: competition with 125I-Bolton-Hunter rat amylin on rat basal forebrain membranes, filtration

Chain of 29Pro-h-Amylin (peptide) (peptide): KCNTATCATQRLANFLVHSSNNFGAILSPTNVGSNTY
Chain of 28Pro-h-Amylin (peptide) (peptide): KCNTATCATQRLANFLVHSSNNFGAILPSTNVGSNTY

IC50 [nM]	Substance
0.148	1Ala-h-Amylin (peptide)
0.033	1Ser-h-Amylin (peptide)
0.015	28Pro-h-Amylin (peptide)
0.064	29Pro-h-Amylin (peptide)
0.05	purified human amylin (from UniProt P10997 34-70) (peptide)
